Measurements taken from FireProtDB (doi:10.1016/j.jmb.2005.05.056).
Where “and” joins values, the source holds several entries; their conditions need not be identical. Equal entries are not always repeated.

Settings: Thermus thermophilus; pH 8; 25 °C; GdnHCl; Fluorescence; Tris-HCl 50 mM; reversible: No; whole UniProt chain shown

B1: Small ribosomal subunit protein bS6 wild type, P23370 (protein)
chain: MRRYEVNIVLNPNLDQSQLALEKEIIQRALENYGARVEKVEELGLRRLAYPIAKDPQGYFLWYQVEMPEDRVNDLARELRIRDNVRRVMVVKSQEPFLANA
For B1, the denaturant m value was 2.54 kcal/mol/M and 2.76 kcal/mol/M and 2.7 kcal/mol/M.
